By stoichiometry N is commonly meant the number of molecules, sites or subunits per partner or assembly.

Data on one substance can be found in PMC4830213, “Signaling mechanism by the Staphylococcus aureus two-component system LytSR: role of acetyl phosphate in bypassing the cell membrane electrical potential sensor LytS” (F1000Research, 2016).

The experiment addresses phosphorylated receiver domain of LytR (LytR^N-P) (Staphylococcus aureus strain Mu50) (UniProt P60609). The experiment is described as follows: native gel or EMSA; LytR^N and LytR^N-P (phosphorylated by acetyl phosphate) at 10, 20 and 40 µM on native-PAGE (10% in the methods, 15% in the legend), buffer kept at 4°C, Coomassie stain.

Take “phosphorylated receiver domain of LytR (LytR^N-P) (from UniProt P60609 1-134) (domain or fragment)”: the stoichiometry N worked out at 2.
